{"source": "the DeepSol protein solubility set"}
{"test": "soluble on expression in E. coli; label from the status in PepcDB or PDB records"}
{"sequence": "MSSRKGTRSSRIVTLERSANSSLSNNGGGDDSFGSTLLETSRLQEKDHLTSLNSRLATYIDKVRQLEQENNRLQVQIRDIEVVEKKEKSNLADRFEAEKARLRRALDSAQDELAKYRIEYDAAKVEVKKLKPQVEKLERELAGAEEQALHAQSIADQSQAKQKTLQARNDKLVVENDDLKKQNITLRDTVEGLKKAVEDETLLRTAANNKIKALEEDLAFALQQHKGELEEVRHKRQVDMTTYAKQINDEYQSKLQDQIEEMRAQFKNNLHQNKTAFEDAYKNKLNAARERQEEAVSEAIHLRARVRDLETSSSGNASLIERLRSELDTLKRSFQEKLDDKDARIAELNQEIERMMSEFHDLLDVKIQLDAELKTYQALLEGEEERLNLTQEAPQNTSVHHVSFSSGGASAQRGVKRRRVVDVNGEDQDIDYLNRRSKLNKETVGPVGIDEVDEEGKWVRVANNSEEEQSIGGYKLVVKAGNKEASFQFSSRMKLAPHASATVWSADAGAVHHPPEVYVMKKQQWPIGDNPSARLEDSEGDTVSSITVEFSESSDPSDPADRCSIM", "soluble on expression in E. coli": "not soluble"}
{"sequence": "SGTNDAEDCCLSVTQKPIPGYIVRNFHYLLIKDGCRVPAVVFTTLRGRQLCAPPDQPWVERIIQRLQRTSAKMKRRSS", "soluble on expression in E. coli": "soluble"}
{"sequence": "MGSDKIHHHHHHMQLDKYTAKKIVKRAMKIIHHSVNVMDHDGVIIASGNSTRLNQRHTGAVLALRENRVVEIDQALAQKWNFEAQPGINLPIHYLGKNIGVVGISGEPTQVKQYAELVKMTAELIVEQQALLEQESWHRRYKEEFILQLLHCNLNWKEMEQQAKFFSFDLNKSRVVVLIKLLNPALDNLQNLINYLEQSEFAQDVAILSLDQVVVLKTWQNSTVLSAQMKTLLPADYSKQDYKIAVGACLNLPLFEQLPLSFQSAQSTLSYGLKHHPRKGIYVFDEHRLPVLLAGLSHSWQGNELIKPLSPLFSEENAILYKTLQQYFLSNCDLYLTAEKLFVHPNTLRYRLNKIEQITGLFFNKIDDKLTLYLGTLLEH", "soluble on expression in E. coli": "not soluble"}
{"sequence": "MVKSIENVKLTKGLFYNSQKKGNDVILALDIDRLLAPYYEAANLPPKKRSYGGWEEREIRGHSLGHWLSAAAAMYETTGDKALLERIDRAVQELATIQDDVGYVGGVKRAHFDEMFSGEFQVGHFNIAGTWVPWYNLHKLFAGLIDVHQLTGHSLALTVVTKLADWAKKGTDQLTDDQFQRMLICEHGGMNEAMADLYTLTGHKDYLQLAIRFCHWAVLEPLANGIDELEGKHANTQIPKVIGAAKLFEITGDDTYRAIAEFFWRQVTNDRSYIIGGNSNSEHFGPANKETLGVETAETCNTYNMLKLTEHLFRWNRSSQLMDYYEKALYNHILASQDPDSGMKTYFVSLQPGHFKVYSSLEESFWCCFGTGLENPARYTRTIYDRDDRHIYVNLFMASEIHLKDLQVQIRQETNFPETDRTKLTFVKADGVSIKLHIRVPEWVAGPVTARINGKETFSESGADYLTIEREWQKGDEIEVHLPMELRIYEAKDDSHKVGIMYGPIVLAGTFGKDHFPLEHHHHHH", "soluble on expression in E. coli": "not soluble"}
{"sequence": "MSLNTREKYLSNVNRLVIKVGSSTLTHPSGLLNFYKIEHIVRQIADLHNQGIKVILVSSGAIGAGIGKLRLKERPKTIPEKQAAAAVGQGVLMHTYEKLFAEYGQIVGQILITREDLSSKKRVVNVQNTFSALLDHGIIPIVNENDATVVEEIKFGDNDTLSARVASLIKADLLILLSDIDGLYDSNPAVNKNAVLIDTVNEVNEEVKASAGGAGSKLGTGGMATKIRAAEIATENGISMVIANGEKQEAIRNILNFENEGTLFIPKNKEGHHHHHH", "soluble on expression in E. coli": "soluble"}
{"sequence": "MGHHHHHHSHMLLPRGLDIKQEELGDLVDKEMAATSAAIETATARIEEMLSKSRAGDTGVKLEVNERILGCCTSLMQAIQVLIVASKDLQREIVESGRGTASPKEFYAKNSRWTEGLISASKAVGWGATVMVDAADLVVQGRGKFEELMVCSHEIAASTAQLVAASKVKADKDSPNLAQLQQASRGVNQATAGVVASTISGKSQIEETDNMDFSSMTLTQI", "soluble on expression in E. coli": "soluble"}
{"sequence": "MKAEYLQRFGGIARLYGQSALRSFSQAKVCVVGIGGVGSWAAEALARAGINQITLIDMDDICITNTNRQIHAMQGTVGRLKTEVMAERIRAINPDCEVIEVDDFVTADNLAEHIKREFDYVVDAIDSVKAKVALIAFCKRNKIPVIVAGGAGGQMDPTQITVADLAKTIQDPLAAKVRSDLRRLHNFSKNPARKFGVECVFSTEQLSYPDGNGGTCQAKAASDGNMKMDCASGFGAVTPVTATFGLVAASRVLKKIAERGARAEKEAGNEEAGSIGEA", "soluble on expression in E. coli": "soluble"}
{"sequence": "MVYNVLLSLPMMIQARWELLALLLGSGLIKQMDEVIFKEIMACASDQDLAARCSSVMLQISSNSDTCDKTAAIIFKGLTSPVAAVRSNVHRSWLCRIITLKNSQKCVETLLKLCKKSIKTTGNCSKILPISFRELPGLTCVDLQWRAILDEEPGDFSAFCYFSVLLSLKNASSQVHIQIPANDEFVLAELRNSGSLDVLKVCSKYKIYPEPLENWILEHFSPEMMEYIDFSMLKTFSAGFSQVFEEKKLEICQEKLEKFYPAEDLGRLNVHVDLSKEKLANETLEQFLQIQHESEEYPSVAGVMENLSKQNIDERLFCQKICLINDIMHEKYSILKEIRREMYTEFIFKIITRIPLRSVVDYVGATLKTEALQNPDFKNQIYQMSCQLLRLDKENARPLSLYHCFIGTCQQQDTTARISEIWAIIRGLKCDVKKRKMTEMLAKVVTSSEIQIDPSLLSDMTICSLGLHPTRFNTESTQLFVASISKLLDFRNESERIMLFQATANTPTLMDLISSILSRPSTDFSISGFQMILYFFTRFHIGSMEFYPYNHLLIITKIINFCHWSIRKFAKEPMILSISVDAICGFLPWSYLSEIALNGLEVENDPVEQLIAQNLKHNRFCVLLAEHDKQDTYLTIEDFEKLPKSEFIVEILRKKDAGNDSLNDLGQKLREITGKSMNFEEKHANLLACGILFEKSVEIMENAEKSKDLGQKWKNQYPPRGFLDNLMESFAATNSCINPEEIQNWWLEKCLGMMEIVRKKIIDFY", "soluble on expression in E. coli": "not soluble"}
{"sequence": "MVTKTITEQRAEVRIFAGNDPAHTATGSSGISSPTPALTPLMLDEATGKLVVWDGQKAGSAVGILVLPLEGTETALTYYKSGTFATEAIHWPESVDEHKKANAFAGSALSHAALP", "soluble on expression in E. coli": "soluble"}
{"sequence": "MDILILFYNTMWGFPLEFRKEDLPGGCVITTDRNLIAKADAVVFHLPDLPSVMEDEIDKREGQLWVGWSLECEENYSWTKDPEFRESFDLWMGYHQEDDIVYPYYGPDYGKMLVTARREKPYKKKACMFISSDMNRSHRQEYLKELMQYTDIDSYGKLYRNCELPVEDRGRDTLLSVIGDYQFVISFENAIGKDYVTEKFFNPLLAGTVPVYLGAPNIREFAPGENCFLDICTFDSPEGVAAFMNQCYDDEALYERFYAWRKRPLLLSFTKKLEQVRSNPLIRLCQKIHELKLGGILEHHHHHH", "soluble on expression in E. coli": "not soluble"}
{"sequence": "MKVRHPFKVVVVTGVPGVGKTTVIKELQGLAEKEGVKLHIVNFGSFMLDTAVKLGLVEDRDKIRTLPLRRQLELQREAAKRIVAEASKALGGDGVLIIDTHALVKTVAGYWPGLPKHVLDELKPDMIAVVEASPEEVAARQARDTTRYRVDIGGVEGVKRLMENARAASIASAIQYASTVAIVENREGEAAKAAEELLRLIKNL", "soluble on expression in E. coli": "soluble"}
{"sequence": "VIHVTKEVKEVATLSCGHNVSVEELAQTRIYWQKEKKMVLTMMSGDMNIWPEYKNRTIFDITNNLSIVILALRPSDEGTYECVVLKYEKDAFKREHLAEVTLSVKADFPTPSISDFEIPTSNIRRIICSTSGGFPEPHLSWLENGEELNAINTTVSQDPETELYAVSSKLDFNMTTNHSFMCLIKYGHLRVNQTFNWNTAK", "soluble on expression in E. coli": "soluble"}
{"sequence": "MADVPDQVDINVNVVEKPTGAIMFGAGYSDREGIILNGSIAQNNILGTGNFLSLQVNTGSVNKVISASFNNPYYTINGVSLGLEAFKRDINTRSLSSVGMFNTDTTGANIRFGIPVAENDIVSLGLGYEHTKIDLRDDSPQRFKDFVDQFGKTSNNLPITLSWARDRRNSAIWTTSGMTQRLFGEFGLPFGDLNYYKVSYEQRWFFPVTKMFTLMLNGEVGVGDGYSDKPLPFFKNFFAGGFNSVRGYNINTLGPRDSDDRVLGGSKRIVGNIEVLFPVPFMKEDKSVRLSAFADGGTIVNSFSGLGFDDFRYSAGLAATWISPMGPLKFSVAQPLNNQSGDKLQRFQFQFGQTFLEHHHHHH", "soluble on expression in E. coli": "soluble"}
{"sequence": "MSEVDKAHLAAINKDVQANDTLFGKIIRKEIPAKIIFEDDEALAFHDVSPQAPIHFLVIPKRRIDMLENAVDSDAALIGKLMVTASKVAKQLGMANGYRVVVNNGKDGAQSVFHLHLHVLGGRQLQWPPG", "soluble on expression in E. coli": "not soluble"}
{"sequence": "MAAKDRIQAIKQMVANDKKVTVSNLSGIFQVTEETIRRDLEKLEDEGFLTRTYGGAVLNTAVLTENIHFYKRASSFYEEKLLIARKALPFIDNKTTMAADSSSTVMELLKLLQDRSDLTLLTNSAEAIHVLAQSEIKVVSTGGELNKNTLSLQGRITKEIISRYHVDIMVMSCKGLDINSGALDSNEAEAEIKKTMIRQATEVALLVDHSKFDRKAFVQLADFSHINYIITDKSPGAEWIAFCKDNNIQLVWLEHHHHHH", "soluble on expression in E. coli": "soluble"}
{"sequence": "MGSDKIHHHHHHADSVKIGFITDMSGLYADIDGQGGLEAIKMAVADFGGKVNGKPIEVVYADHQNKADIAASKAREWMDRGGLDLLVGGTNSATALSMNQVAAEKKKVYINIGAGADTLTNEQCTPYTVHYAYDTMALAKGTGSAVVKQGGKTWFFLTADYAFGKALEKNTADVVKANGGKVLGEVRHPLSASDFSSFLLQAQSSKAQILGLANAGGDTVNAIKAAKEFGITKTMKLAALLMFINDVHALGLETTQGLVLTDSWYWNRDQASRQWAQRYFAKMKKMPSSLQAADYSSVTTYLKAVQAAGSTDSDKVMAQLKKMKIDDFYAKGYIRTDGSMIHDMYLMEVKKPSESKEPWDYYKVVATIPGEQAFTTKQETRCALWK", "soluble on expression in E. coli": "not soluble"}
{"sequence": "MSLLVIVKVQQAKNPLERAFFYAVSPEDYYEQAERLLKEGVIDEEGLKKARIEEYVLGARFNANFHSYALKDVFGNFDFVGFSDRRQVNLQGFLNLPAKDQLKINVPVKNEEIGHFGVTMRESKQQEVYEAAEKFIEACKAEFPPGIIGMFGLQGAMAYSPEDETKLEFVIFDVSFRVPGDPAIGPTSPEMRNLTLKHGVKIEDPLDLTMMEIKKAMELKRMEEIVTEGHHHHHH", "soluble on expression in E. coli": "soluble"}
{"sequence": "MSLKIGPILRSNVNRSITGDFDFREADLSLIRNFPNARVSLRDITLTTAAPFEGDTLFKAREAYLVMGIGELFKGAGEPIGIRELFVSGADLRLRLDAEERPNYLVAAEDPAATGATAASDGFTFDLQGYQIADSKISYMDQSSGISFLLEDIQHTGSGDLSLAESRLETRTDARISLGMDSVQYLDRNSLQLDARIGIDLETDTYTFLENEGLINQMPLVFEGSVQLVEEGQEIDLDFRTPSSDFKNFLALIPEAYSKSLEEVRTSGQFTLEGSITGRSDDTRIPNLDIRMEAVDAAFRYPDLPKGIDDINFSARLLNTTGIAGDTYLEIPAAGFRIDQDVFNMSGNIRSLTGNPEVDAALKGTINLASLDQAYPVELAPGLSGVLRADVQTAFDMASVENKQYGNTRTSGSLQLSNLNFRADNFAEPVKIREARLRFDPVEARLESLSGSLGQSDFTLSGTVRDYLGYLLADGILKGQFSLTSNQLLVSDFMSPEDPGQAEKETGADARASGQAPDGGPAFQIPAAIDVSIRGQAASVVYDGLPLRNVSGNLQIRDQELQLRDVRSDALDGKLALNGTVATGEGLPRFNMDLGIDGFRIRETLESIELFETLAPIASIVEGKLNSRVQLSGLLNSDFSPDLMSLAGNVVAEVLASDITGTRAKVLEALDARMDFFNMEDLDLKGLKTALNFENGLVTVKPFSFTYRDMEVSVAGSHSFDQQLNYTATLQVPAKYLGSDVNRLVTELQEPGLKEGHHHHHH", "soluble on expression in E. coli": "not soluble"}
